Molecular target: the molecule itself
Experiment: crystal structure; cocrystals of WT SaGlmU with AcCoA and citrate (PDB 9DQF) and with UTP, CoA and Glc 1-P (PDB 9DR4); reducing conditions, 0.5 mM DTT; 200 mM lithium citrate tribasic tetrahydrate, 15-20% PEG 3350; one monomer in the asymmetric unit, trimer assembly

B1: Staphylococcus aureus N-acetylglucosamine 1-phosphate uridyltransferase (GlmU), wild type (enzyme, Staphylococcus aureus NCTC 8325)
chain: MRRHAIILAAGKGTRMKSKKYKVLHEVAGKPMVEHVLESVKGSGVDQVVTIVGHGAESVKGHLGERSLYSFQEEQLGTAHAVQMAKSHLEDKEGTTIVVCGDTPLITKETLVTLIAHHEDANAQATVLSASIQQPYGYGRIVRNASGRLERIVEEKDATQAEKDINEISSGIFAFNNKTLFEKLTQVKNDNAQGEYYLPDVLSLILNDGGIVEVYRTNDVEEIMGVNDRVMLSQAEKAMQRRTNHYHMLNGVTIIDPDSTYIGPDVTIGSDTVIEPGVRINGRTEIGEDVVIGQYSEINNSTIENGACIQQSVVNDASVGANTKVGPFAQLRPGAQLGADVKVGNFVEIKKADLKDGAKVSHLSYIGDAVIGERTNIGCGTITVNYDGENKFKTIVGKDSFVGCNVNLVAPVTIGDDVLVAAGSTITDDVPNDSLAVARARQTTKEGYRK
notes: GlmU of Staphylococcus aureus NCTC 8325; the glmU gene was amplified by PCR from genomic DNA; the domains described in the structure span Res. 1-228 (uridyltransferase), 229-251 (linker) and 252-450 (acetyltransferase); Plasmid 6xHis-SaGlmU-pET-16b (NcoI/BamHI); No removal of the tag is described; By intact mass the N-terminal methionine is removed; also called SaGlmU; WT SaGlmU
  stoichiometry N: 3

From PMC11947611, “Functional and structural characterization of Staphylococcus aureus N‐acetylglucosamine 1‐phosphate uridyltransferase (GlmU) reveals a redox‐sensitive acetyltransferase activity” (Protein Science : A Publication of the Protein Society, 2025)
